Laboratory results taken from publication PMC11929605 (Nature, 2024).

B1: WT human Gαi3 (natural protein)
chain: MGCTLSAEDKAAVERSKMIDRNLREDGEKAAKEVKLLLLGAGESGKSTIVKQMKIIHEDGYSEDECKQYKVVVYSNTIQSIIAIIRAMGRLKIDFGEAARADDARQLFVLAGSAEEGVMTPELAGVIKRLWRDGGVQACFSRSREYQLNDSASYYLNDLDRISQSNYIPTQQDVLRTRVKTTGIVETHFTFKDLYFKMFDVGGQRSERKKWIHCFEGVTAIIFCVALSDYDLVLAEDEEMNRMHESMKLFDSICNNKWFTETSIILFLNKKDLFEEKIKRSPLTICYPEYTGSNTYEEAAAYIQCQFEDLNRRKDTKEIYTHFTCATDTKNVQFVFDAVTDVIIKNNLKECGLY
modifications: lipidated N-terminus
B2: human CaSR (residues 20-894), wild-type construct FLAG-CaSR (receptor, UniProt P41180 20-894, looked up)
chain: YGPDQRAQKKGDIILGGLFPIHFGVAAKDQDLKSRPESVECIRYNFRGFRWLQAMIFAIEEINSSPALLPNLTLGYRIFDTCNTVSKALEATLSFVAQNKIDSLNLDEFCNCSEHIPSTIAVVGATGSGVSTAVANLLGLFYIPQVSYASSSRLLSNKNQFKSFLRTIPNDEHQATAMADIIEYFRWNWVGTIAADDDYGRPGIEKFREEAEERDICIDFSELISQYSDEEEIQHVVEVIQNSTAKVIVVFSSGPDLEPLIKEIVRRNITGKIWLASEAWASSSLIAMPQYFHVVGGTIGFALKAGQIPGFREFLKKVHPRKSVHNGFAKEFWEETFNCHLQEGAKGPLPVDTFLRGHEESGDRFSNSSTAFRPLCTGDENISSVETPYIDYTHLRISYNVYLAVYSIAHALQDIYTCLPGRGLFTNGSCADIKKVEAWQVLKHLRHLNFTNNMGEQVTFDECGDLVGNYSIINWHLSPEDGSIVFKEVGYYNVYAKKGERLFINEEKILWSGFSREVPFSNCSRDCLAGTRKGIIEGEPTCCFECVECPDGEYSDETDASACNKCPDDFWSNENHTSCIAKEIEFLSWTEPFGIALTLFAVLGIFLTAFVLGVFIKFRNTPIVKATNRELSYLLLFSLLCCFSSSLFFIGEPQDWTCRLRQPAFGISFVLCISCILVKTNRVLLVFEAKIPTSFHRKWWGLNLQFLLVFLCTFMQIVICVIWLYTAPPSSYRNQELEDEIIFITCHEGSLMALGFLIGYTCLLAAICFFFAFKSRKLPENFNEAKFITFSMLIFFIVWISFIPAYASTYGKFVSAVEVIAILAASFGLLACIFFNKIYIILFKPSRNTIEEVRCSTAAHAFKVAARATLRRSNV

Experiments:
[1] = target: B2; experiment: cryo-EM structure
cryo-EM structure = target: the molecule itself; experiment: cryo-EM structure

Binder | binding result [1] | stoichiometry N (cryo-EM structure)
B1 | binds | –
B2 | – | 2
